Measured values published in the nanobody polyreactivity screen of Harvey et al. (2022).

Assay: yeast display, Sf9 membrane polyspecificity reagent, FACS + sequencing; frameworks hold sequencing errors
Method in brief: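 Using colony PCR, genes from sorted yeast display clones were amplified, then sequenced on MiSeq at 2 × 250 and filtered by CDR length. The clones had been stained with 10% biotinylated, detergent-solubilized Sf9 membrane reagent for 1 hour at 4 °C and sorted by FACS into low and high (top ~1%) gates on anti-HA and streptavidin fluorescence. Polyreactivity labels come from the gate of origin.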

Row | Sequence | polyreactivity (PSR sort gate)
1 | KGHLEESGGGLVQAGGRLRLSCPASGNTFGDYAMGRYRQAPGKERELVAAISRSGGSTSYADSVKGRFTISRDNAKNTFYLQMNSLKPVDTAVYYCAAYWQRFGYDYWGQGTQVTVSS | low polyreactivity
2 | QVQLVESGGGLVQAGGSLRLSCAASGRIFAGYAMGWDRQAPGKERELVATISSGGSTYYADSVKGRFTISRDNAKNTVYLQMNSLKPEDTAVYYCAAEYGTRQYSSYYKLFNYWGQGTQVTVSS | low polyreactivity
3 | QVQLVESGGGLVQAGGSLRLSCAASGFIFPPYAMGWYRQAPGTERELVAAIRISGGSTYYADSVKGRFTISRDNAKNTVYFHLNSLKPEDTAVYYCAARYVSSTPAFAYYYWGQGTQVTVSS | high polyreactivity
4 | QVQLVESGGGLVQAGGSLRLSCAASGFTFHYYAMGRYRQAPGKERELVAAISWDTGSTYYADSVKGRFTISRDNAKNTVYLQMNSLKPEDTAVYYCNAQFYWYHGEWVFYGLSDDFDYWGQGTQVTVSS | high polyreactivity
5 | QVQLVESGGRLVQAGGSLRLSCAASGRTFNRNAMVWYRQAPGKERELVAAISRGGGGTYYADSVMGRFTISRDNAKNTVYLQMNSLKPEDTAVYYCNAAPYYVMYLLWSSNTYDYWGQGTQVTVSS | high polyreactivity
6 | QVQLVESGGGLVQAGGSLRLSCAASGRTFGGYAMGWYRQAPGKERELVAAIRRSGGSTYYADSVKGRFTISRDNAKNTVYLQMNSLKPEDTAVYYCNVLRFSTGGYRYVYDYDYWGQGTQVTVSS | high polyreactivity
7 | QDQLVESGGGLVQAGGSLRLSCAASGSRLGGYAMGWYRQAPGKERELVAAITWNGGRTYYADSVKWRFTISRDNAKNTVYLQMNILKPEDTAVYYCAADYSKGYEYWGQVTQVTVSS | high polyreactivity
8 | QVQLVESGGGLVQAGGSLRLSCAASGRTFSRNAMGWYRQAPGKERELVAAISDGGGSTYYADSVKGRFTISRDNAKNPVYLQMNILKPEDTAVYYCAARVLDWRGDIHDSEYWGHGTQVTVSS | low polyreactivity
9 | QVHLVESGGGLVQAGGSLRLSSAASGRIFDRYAMGWYRQAPGKERELVAAITSRADRTYYADSLKGRFTISRDNAKNTVYLQMNSLKPEDTAVYYCNTDKKYRHRYGGILDYWGQGTEVTVSS | high polyreactivity
10 | QVQLVESGGGLVQAGSSLRLSCAASGRTFGGYVMGWYRQAPGKERELVAAISSSAGSTYYADSVKGRFTISRDNAKNTVYLQMNSLKPEDTAVYYCAKRSYNPYDHYYRYQYGYWGQGTQVTVSS | high polyreactivity
11 | QVQLVESGGGLVQAGGSLRLSCAASGNTFDRNAMGWYRQAPGKERELVAGISWRGGSTYYADSVKGRFTISRDNAKNTVYLQMNSLKPEDTAVYYCAAQRRYSTITGYGSWGQGTQVTVSS | high polyreactivity
12 | QVQLVESGGGLVQAGGSLRLSCAASGRIFAINTMGWYRQAPGKERELVAAINNGGSTNYADSVKGRFTISRDNAKNTVYLQMNSLKPEDTAVYYCAAEGLPYVRVFDFVSRYDYWGQGTQVTVSS | low polyreactivity
13 | QVQLVESGGGLVQAGGSLRLSCAASGRIFDNYAMGWYRQAPGKERELVAAITYIDSGTYYADSVKGRFTISRDNAKNTVYLQMNSLKPEDTAVYYCAVRLNSDSKRKTQKFGYWGQGTQVTVSS | low polyreactivity
14 | QVQLVESGGGLVQAGGSLRLSCAASGITLYAYVMGWYRQAPGKERELVAAIRSGGSTYYADSVKGRFTISRDNAKNTVYLQKNSLKPEDTAVYYCAAYYPLWGWGYDYWGQGTQVTVSS | high polyreactivity
15 | QVQLVESGGGLVQAGGSLRLSCAAYGSIIHANAMGWYRQAPGKERELVAAITGDGSTYYADSVKGRFTISRDNAKNTVYLQMNSLKPEDTAVYYCNAEYYSTYDSWGQGTQVTVSS | low polyreactivity
16 | QVQLVESGGGLVQAGGSLRLSCAASGSTFRYYAMGWYRQAPGKVRELVAAITSSGGSTYYADSVKGRFTISRDNEKNTVYLQMNSLKPEDTAVYYCNAVSSYREDDYWGQGTQVTVSS | high polyreactivity
17 | QVQLVESGGGLVQAGGSLRLSCAASGSTFSLNDMGWYRQAPGKERELVAVISSSTGITYYADSVKGRFTISRDNAKNTVYLQMNSLKPEDTAVYYCNADKWEVYYTRMYYWGQGTQVTVSS | low polyreactivity
18 | QVQLVESGGGLVQAGGSLRLSCAASGFIFSYYAMGWYRQAPGKERELVAAISGSGGSTYYADSVKGRFTISRDNAKNTVYLQMNSLKPEDTAVYYCAAVSSYSRVYYWGQGTQVTVSS | high polyreactivity
19 | QVQLVESGGGIVQAGGSLRLSCAASGRTFYYYAMGWYRQAPGKERELVASISWSGGSTYYADSVKGRFTISRDNAKNTVYLQMNSLKPEDTAVYYCNAQYHTYRWLYAVYLSGDYWGQGTQVTVSS | low polyreactivity
20 | QVHLVESGGGLVQAGGSLRLSCAASGRTFVQYAMGWSRQAPGTERELVAVISNGGTTYYADSVKGRFTISRDNAKNTVYLQMNSLKPEDTAVYYCAAKIITRRGGRYDYWGQGTQVTVSS | high polyreactivity
21 | QVQLVESGGGLVQAGGSLRLSCAASGSTFDANAMGWYRQAPGKERELVARMSRSTGSTYYADSVKGRFTISRDTAMNSVYLQLNSLKPVDTAVYYCAKVSRASNKYGYWGQGTQVTVSS | high polyreactivity
22 | QVQLVESGGGLVQAGGSLRLSCAASGRTFGRYAMGWYRQAPWKERELVAAITVGGGSTYYADSVKGRFTISRDNAKNTVYLQMNSLKPEDTAVYYCNALHTYTYRYDYYYWGQGTQVTVSS | high polyreactivity

Row | Sequence | polyreactivity (PSR sort gate)
23 | QVQLVESGGGLVHAGGSLRLSCAASGSTFDGYTMGWYRQAPGTERELVAAITDSGGSTYYADSVKGRFTISRDKAKNTVYLQMNSQKPEDTAVYYFAAAVPELYEVRYHDDYWGQGTQVTVSS | low polyreactivity
24 | QVQLVESGGGLVQAGGSLRLSCAASGSIFSGYTMGWYRQAPGKERELVAGISYRGGSTYYADSVKGRFTISRDNAKNTVYLQMNSLKPEDTAVYYCAALYYRRGSLNYEYWGQGTQVTVSS | high polyreactivity
25 | QVQLVESGGGLVQAGGSLRLNCAASGSIFDDYAMGWYRQAPGKERELVAAINIRTGSTYYADSVKGRFTISRDNAKNTVYLQMNSLKPEDTAVYYCNRVVRGFVRHLDYWGQGTQVTVSS | low polyreactivity
26 | QVQIVESGGGLVQAGGSLRLSCAASGSTFYGYAMGWYRQAPGKERELVAVINYRGDRTYFADSVKGRFTISRDNAKNTVYLQMNSLKPEDTAVYYCAARYRVYYLAGYEYWGQGTQVTVSS | high polyreactivity
27 | QVQLVESGGGLVQAGGSLRLSCAASGSTFSGNAMGWYRQAPGKERELVAAINSVRTYYADSVKGRFTISRDNAKNTVYLQMNSLKPEDTAVYYCAARQGYSSRYPAKGYYWGQGTQVTVSS | high polyreactivity
28 | QVQLVESGGGLVQAGGSLRLSCAASGRIFGQYAMGWYRQAPGKERELVASISRRGGSKNYADSVKGRFTISRDNAKNTVYLQMNSRKPEDTAVYYCATGRTWILQKLDYWGQGTQVPVSS | high polyreactivity
29 | QVQLVESGGGLVQAGGSLRLSCAASGGIFDSYAMGWYRQAPGKERELVADITWSGGSTYYADSVKGRFTISRDNAKNTVYLQMNSLKPEDTAVYYCAADDGSQYYFDSPHEYDYWGQGTQVTVSS | low polyreactivity
30 | QVQLVESGGGLVKAGGSLRLSCAASGRTFYVNAMGWYRQAPGKEREFVAAISRRGGSTYYADSVKGRFTISRDNAKNTVYFQLNSLKPEDTAVYYCATGYHRWSSWALDYWGQGTQVTVSS | high polyreactivity
31 | QVQLVESGGGLVQAGGSLRLSCAASGRTFVTNAMGWYRQAPGKERELVAAISSSGGSTYYADSVKGRFTISRDNAKNTVYLQMNSLKPEDTAVYYCAVGGQTKGQYDYWGQVTQVTVSS | low polyreactivity
32 | QVQLVESGGGLVQAGGSLRLSCAASGSTFQSNAMGWYRQAPGKERELVASITDSGGRTYYADSVKGRFTSSRDNAKNTVYLQMNSLKPEDTAVYYCAAVSLWWSDYYFVEYDYWGQGTQVTVSS | high polyreactivity
33 | QVQLVESGGGLVQAGGSLRLSCAASGRTFRLYAMGWYRQAPGKERELVAAITFRGGRTYYADSVKGRFTISRDNAKNTVYLQMNSLKPEYTAVYYCNAVTYSSPYRFDYWGQGTQVTVSS | low polyreactivity
34 | QVQLVESGGGLVQAGGSLGLSCAASGNMFGRYAMGWYRQAPGKEREYVATITYSGGSTYYADSVKGPFTISRDNAKNTVYLQMNSLKQEDTAVYYCAARVGRPTLVAAKYDYWGQGTQVTVSS | high polyreactivity
35 | QVQLVESGGGLVQAGGSLRLSCAASGFIFCPNDMGWYRQAPGKERELVADISGTGGGTYADSVKGRFTISRDNAKNTVYLQMNSLKPEDTAVYYCAALYGLYVSPYWYTGYYWGQGTQVTVSS | low polyreactivity
36 | QVQLVESGGGLVQAGGSLRLSCPASGRIFQLYAMGWYRQAPGKERELVAAIRYSGDSTYYADSVKGRLTISRDNAKNTVYLQLNSLKPEDTAVYYCAARSRYGYRNKYEYWGQGTQVTVSS | high polyreactivity
37 | QVHLVESGGGLVQAGGSLRLSCAASGFIFYYYAMGWYRQAPGKERELFARISRRGGSTYYADSVKGRFTISRDNAKNTVYLQMNSLKPEDTAVYYCAAVYLVYYGVSDMDYWGQGTKVTVSS | high polyreactivity
38 | QVQLVESGGGLVQAGGSLRISCAASGRTFGPYAMGWYRQAPGKERELGAAITSSGGSTYYADSVKGRFTISRDNAKNTVYLQMNSLKPEDTAVFYCNKLYWRQSLDYDYWGQGTQVTVSS | low polyreactivity
39 | QVQLVESGGGLVQAGGSLRLSCAASGRIFSGYAMGWYRKAPGKERELVAAINRGGDTNYADSVKGRFTISRDNAKNTVYLQMNSLKPEDTAVYYCAAQYSGRYRRVPKSYPDRGDYWGQGTQVTVSS | low polyreactivity
40 | QVQLVESGGGLVQAGGSLRLSCAASGRIFNLYAMGWYRQAPGKERELVAAIRGRGTSTYYADSVKGRFTISRDNAKNTVYLQMNSLKPEDTAVYYCATTSRELGELRIFDYWGQGTQVTVSS | low polyreactivity
41 | QVQLVESGGGLVQAGGSLRLSCAASGRIFNYYAMGWYRQAPGKERELVASITSRGGTTYYADSVKGRFTISRDKAKKTVYLQMNSLIPEDTAVYYCAAFTRPVSRRSRMNYWGQGTQVTVSS | high polyreactivity
42 | QVQLVESGGGLLQAGGSLRLSCAASGSTFGYYAMGWYRQAPGKERELVAAITRSGTNTYYADSVKGRFTISRDNAKNTVYLQMNSLKPEDTAVYYCNAVSRRRSDYWGQGTQVTVSS | high polyreactivity
43 | QVQLVESGGGLVQAGGSLRLSCAASGSTFPRYAMGWYRQAPGKEREFVAVIWSGGSTYYADSVKGRFTISRDNAKNTVYLQMNSLKPEDTAVYYCAAEYHTLSKYSGYATHDYWGQGTQVTVSS | low polyreactivity
